Series [1] deals with T1, SARS-CoV-2 nucleocapsid NTD (WT) (SARS-CoV-2 (reference genome …, UniProt P0DTC9 44-180)). Nature of the series: NMR; SL4ext-like; stability confirmed by aSEC. Particulars: protein: recombinant, tags: cleaved tag, one artificial N-terminal Gly left.
The target in series [2] is T1, SARS-CoV-2 nucleocapsid NTD (WT). Nature of the series: NMR; SL4ext-like. The note with it: protein: recombinant; tags: cleaved tag; one artificial N-terminal Gly left.
The target is the same in series [3]. Nature of the series: NMR; intermediate exchange. The note with it: protein: recombinant; tags: cleaved tag; one artificial N-terminal Gly left; labile hairpin, Tm 36.5 C.
Series [4] has the same target. In words: EMSA; 1 mM Mg2+, yeast tRNA; apparent. Particulars: protein: recombinant, tags: cleaved tag, one artificial N-terminal Gly left, label: 5'-32P in EMSA.
Series [5] has the same target. In words: EMSA. The note with it: protein: recombinant; tags: cleaved tag; one artificial N-terminal Gly left; label: 5'-32P in EMSA; branched stem-loops. In general terms: In EMSA bound probe runs differently from free probe, usually more slowly.
Series [6] has the same target. Nature of the series: ITC; low-salt. Particulars: protein: recombinant; tags: cleaved tag; one artificial N-terminal Gly left; hairpin with 3' ss extension.
The target of series [7] is T2, SARS-CoV-2 nucleocapsid NTD (WT) (SARS-CoV-2 (reference genome …, UniProt P0DTC9 44-180)). Nature of the series: ITC; low-salt; NTD titrated to RNA. Particulars: protein: recombinant; tags: cleaved tag; one artificial N-terminal Gly left; label: 5'-32P in EMSA; hairpin.
For series [8], the target named is T2, SARS-CoV-2 nucleocapsid NTD (WT). In words: ITC. Particulars: protein: recombinant; tags: cleaved tag; one artificial N-terminal Gly left; label: 5'-32P in EMSA; hairpin.

For the molecule GCGUGGCAACCGGGUGUUGCUAUGCCUAAUCUUUACAAAAUGCAAAGA (structured_RNA) [P3], the binding result in series [1] (tandem stem-loops) is recorded as “binds”.
Take GGAUGAAGAUUUUCAAGAAAACUGGAACACUAA (structured_RNA) [P2]: the binding result in series [2] is on record as “binds”.
Turning to GGAUAAUUAAUAACUAAUUACU (ssRNA) [Ext], the binding result in series [3] was “binds”.

B1: SL4ext (SL4_extSL4) (structured_RNA)
RNA: GGUCUGUGUGGCUGUCACUCGGCUGCAUGCUUAGUGCACUCACGCAGUAUAAUUAAUAACUAAUUACUG
Regarding B1, in series [4] (15N-U/G for RNA-observed NMR, hairpin with 3' labile extension), the “apparent K (half saturation)” value is roughly 5 µM.

B2: SL5 (structured_RNA)
RNA: GGUCGUUGACAGGACACGAGUAACUCGUCUAUCUUCUGCAGGCUGCUUACGGUUUCGUCCGUGUUGCAGCCGAUCAUCAGCACAUCUAGGUUUCGUCCGGGUGUGACCGAAAGGUAAGAUGGAGAGCCUUGUCCCUGGUUUCAACGAGAA
Consider B2, for which the binding result in series [5] is listed as “binds”.
As for GGUUUAUACCUUCCCAGGUAACAAACCAACCAACUUUC (structured_RNA) [SL1_extSL1], the Kd (commonly the concentration at which binding is half-saturated) in series [6] stood at 87 µM.
GGCUUUCGAUCUCUUGUAGAUCUGUUCUCUAAACGAACUUUAA (structured_RNA) [SL2+3]: the “apparent K (half saturation)” value in series [4] (two stem-loops) is roughly 10 µM.
As for GGGUGUGGCUGUCACUCGGCUGCAUGCUUAGUGCACUCACGCCC (structured_RNA) [SL4], the dissociation constant (Kd) in series [7] amounted to 64 µM; in series [8], 53 µM.
Turning to GCCUAAUCUUUACAAAAUGCAAAGA (structured_RNA) [P3_B], in series [1] (labile hairpin), the binding result is “binds”.
